Source: patent publication US20060193821, “Aptamers to the human IL-12 cytokine family and their use as autoimmune disease therapeutics” (published 2006)

Key:
[1] = biological target: IL-12 (human, p35/p40 heterodimer) (Homo sapiens, UniProt P29459;P29460 SEQ:57-253,SEQ:23-328); assay: filter; no significant binding
[2] = biological target: T1, IL-23 (human, p19/p40 heterodimer) (Homo sapiens, UniProt Q9NPF7;P29460 SEQ:20-189,SEQ:23-328); assay: filter; SHMCK, tRNA; settings: tags: R&D Systems, carrier free
T1 sequence (Q9NPF7 20-189, chain 1 of 2): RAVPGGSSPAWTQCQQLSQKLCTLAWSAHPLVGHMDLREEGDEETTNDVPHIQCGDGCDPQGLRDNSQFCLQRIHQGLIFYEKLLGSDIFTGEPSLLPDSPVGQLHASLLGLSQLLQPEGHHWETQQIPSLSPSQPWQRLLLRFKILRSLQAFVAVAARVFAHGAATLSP
T1 sequence (P29460 23-328, chain 2 of 2): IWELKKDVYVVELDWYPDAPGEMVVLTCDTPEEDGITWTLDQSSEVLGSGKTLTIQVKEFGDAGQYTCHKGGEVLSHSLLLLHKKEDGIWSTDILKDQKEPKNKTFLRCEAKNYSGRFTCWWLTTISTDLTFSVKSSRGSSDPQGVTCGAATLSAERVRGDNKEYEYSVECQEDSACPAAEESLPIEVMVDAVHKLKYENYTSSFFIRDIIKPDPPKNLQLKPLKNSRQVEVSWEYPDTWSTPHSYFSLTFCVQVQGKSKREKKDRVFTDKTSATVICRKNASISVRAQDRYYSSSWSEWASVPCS
Experimental: Monitoring Progress of rRfY Selection. Dot blot binding assays were performed throughout the selections to monitor the protein binding affinity of the pools. Trace ³²P-labeled RNA was combined with a dilution series of h-IL-23 and incubated at room temperature for 30 minutes in 1×SHMCK (20 mM Hepes, 120 mM NaCl, 5 mM KCl, 1 mM MgCl₂, 1 mM CaCl₂, pH 7.4) plus 0.1 mg/mL tRNA for a final volume of 20 μL. The binding reactions were analyzed by nitrocellulose filtration using a Minifold I dot-blot, 96-well vacuum filtration manifold (Schleicher & Schuell, Keene, N.H.). A three-layer filtration medium was used, consisting (from top to bottom) of Protran nitrocellulose (Schleicher & Schuell), Hybond-P nylon (Amersham Biosciences) and GB002 gel blot paper (Schleicher & Schuell). RNA that is bound to protein is captured on the nitrocellulose filter, whereas the non-protein bound RNA is captured on the nylon filter. The gel blot paper was included simply as a supporting medium for the other filters. Following filtration, the filter layers were separated, dried and exposed on a phosphor screen (Amersham Biosciences, Piscataway, N.J.) and quantified using a Storm 860 Phosphorimager® blot imaging system (Amersham Biosciences).
When a significant positive ratio of binding of RNA in the presence of h-IL-23 versus in the absence of h-IL-23 was seen, the pools were cloned using a TOPO TA cloning kit (Invitrogen, Carlsbad, Calif.) according to the manufacturer's instructions. For the h-IL-23 and X-IL-23 selections, the Round 8 pool templates were cloned, and 32 individual clones from each selections were assayed in a 1-point dot blot screen (+/−75 nM h-IL-23, as well as a separate screen at +/−75 nM h-IL-12). For the PN-IL-23 selection, the Round 10 pool was cloned and sequenced, and 8 unique clones were assayed for protein binding in a 1-point dot blot screen (+/−200 nM h-IL-23 and a separate screen at +/−200 nM h-IL-12). Subsequently, the Round 10 PN-IL-23 pool was re-cloned for further sequences, as well as the R12 PN-IL-23 pool, and the clones were assayed for protein binding in a 1 point do blot screen (+/−100 nM h-IL-23 or +/−200 nM h-IL-12).

[3] = biological target: T1, IL-23 (human, p19/p40 heterodimer); assay: cell_activity; TransAM STAT3, PHA blasts; settings: tags: R&D Systems
Experimental: (§1) In summary, the cell-based assay was conducted by isolating the peripheral blood mononuclear cells (PBMCs) from whole blood using a Histopaque gradient (Sigma, St. Louis, Mo.). The PBMCs were cultured for 3 to 5 days at 37° C./5% CO₂ in Peripheral Blood Medium (Sigma) which contains PHA, supplemented with IL-2 (100 units/mL) (R&D Systems, Minneapolis, Minn.), to generate PHA Blasts. To test IL-23 aptamers, the PHA Blasts were washed twice with 1×PBS, then serum starved for four hours in RPMI, 0.20% FBS. After serum starvation, approximately 2 million cells were aliquotted into appropriately labeled eppendorf tubes. hIL-23 at a final constant concentration of 3 ng/mL (R&D Systems, Minneapolis, Minn.) was combined with a dilution series of various IL-23 aptamers as described in Example 1, and the cytokine/aptamer mixture was added to the aliquotted cells in a final volume of 100 μl and incubated at 37° C. for 10-12 minutes. The incubation reaction was stopped by adding 1 mL of ice-cold PBS with 1.5 mM Na₃VO₄. Cell lysates were made using the lysis buffer provided by the TransAM™ STAT 3 assay following the manufacturer's instructions. FIG. 20 depicts a flow summary of the protocol used for the cell based assay.
(§2) Full length clones from the rRfY selection described in Example 1A, and select minimized rRfY clones that were described in Example 2A. 1, were tested using the TransAM™ STAT3 activation assay. Table 34 summarizes the cell based assay data for IL-23 full length aptamers generated from the rRfY selections described in Example 1A. 1, each compared to the activity of their respective parent (full length) clone.

[4] = biological target: T1, IL-23 (human, p19/p40 heterodimer); assay: cell_activity; TransAM STAT3; settings: tags: R&D Systems, carrier free
Experimental: as §1, §2

IL-12 (human, p35/p40 heterodimer), sequence (P29459 23-219, chain 1 of 2): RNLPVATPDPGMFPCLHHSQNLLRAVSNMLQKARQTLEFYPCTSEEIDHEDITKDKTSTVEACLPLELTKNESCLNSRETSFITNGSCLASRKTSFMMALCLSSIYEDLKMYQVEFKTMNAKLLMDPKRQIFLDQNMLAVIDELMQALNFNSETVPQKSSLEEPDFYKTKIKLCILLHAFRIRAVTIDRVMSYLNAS
IL-12 (human, p35/p40 heterodimer), sequence (P29460 23-328, chain 2 of 2): as the sequence (P29460 23-328, chain 2 of 2) above

| Binder | binding result [1] | Kd [2] | IC50 [3] | IC50 [4] |
| --- | --- | --- | --- | --- |
| AMX91-G11 (ssRNA, 2'-F C,U) RNA: GGGAAAAGCGAAUCAUACACAAGACUUAACAGUGCGGGGCGCAGUGUAUAGAUCCGCAAUGUGUGCUCCGCCAGAGACCAACCGAGAA | no binding | 104 nM | – | – |
| AMX91-G11 (ssRNA, 2'-F C and U, 2'-OH A and G) RNA: GGGAAAAGCGAAUCAUACACAAGACUUAACAGUGCGGGGCGCAGUGUAUAGAUCCGCAAUGUGUGCUCCGCCAGAGACCAACCGAGAA | – | – | 3000 nM | – |
| AMX86-D6 (ssRNA, 2'-F C and U, 2'-OH A and G) RNA: GGGAAAAGCGAAUCAUACACAAGAUUAGGCGUCGUGACAAUAACUGGUCCACGAGCAUGUCAGUGCUCCGCCAGAGACCAACCGAGAA | – | – | > 5000 nM | – |
| A10.min5 (ssRNA, 2'-F C,U) RNA: GGAGCAUACACAAGAAGUUUUUUGUGCUCUGAGUACUCAGCGUCCGUAAGGGAUAUGCUCC | – | – | – | 300 nM |
| AMX91-H8 (ssRNA, 2'-F C and U, 2'-OH A and G) RNA: GGGAAAAGCGAAUCAUACACAAGAACGCAUAGUCGGAUUUACCGAUCAUUCUGUGCCUUCGUGACGCUCCGCCAGAGACCAACCGAGAA | – | – | 3000 nM | – |
| B10.min4 (ssRNA, 2'-F C,U) RNA: GGAGCAUACACAAGAAGUGCUUCAUGCGGCAAACUGCAUGACGUCGAAUAGAUAUGCUCC | – | – | – | 500 nM |
| AMX91-D9 (ssRNA, 2'-F C,U) RNA: GGGAAAAGCGAAUCAUACACAAGAGUGUAUUACCCCCAACCCAGGGGGACCAUUCGCGUAACAAGCUCCGCCAGAGACCAACCGAGAA | no binding | 44.6 nM | – | 150 nM |
| F11.min2 (ssRNA, 2'-F C,U) RNA: GGACAUACACAAGAUGUGCUUGAGUUAAAUCUCAUCGUCCCCGUUUGGGGAUAUGUC | – | – | – | 25 nM |
| AMX91-G7 (ssRNA, 2'-F C,U) RNA: GGGAAAAGCGAAUCAUACACAAGACAUGACUGCAUGCUUCGGGAGUAUCUCGGUCCCGACGUUCGCUCCGCCAGAGACCAACCGAGAA | no binding | 63.6 nM | – | 150 nM |
| AMX91-G1 (ssRNA, 2'-F C and U, 2'-OH A and G) RNA: GGGAAAAGCGAAUCAUACACAAGAUAUGUGCCUGGGAUGGACGACAUCCCCUGUCUAAGGAUAUGCUCCGCCAGAGACCAACCGAGAA | – | – | 2000 nM | – |
| AMX91-B8 (ssRNA, 2'-F C and U, 2'-OH A and G) RNA: GGGAAAAGCGAAUCAUACACAAGAAUCCUGGCUUCGCAUAGUGUAUGGGUAGUACGACAGCGCGUGCUCCGCCAGAGACCAACCGAGAA | – | – | 450 nM | – |
| AMX86-D5 (ssRNA, 2'-F C and U, 2'-OH A and G) RNA: GGGAAAAGCGAAUCAUACACAAGAGAGGUAUGUGGUUUUGCGGAGCAACUCGUGUCAGCGGUCAGCUCCGCCAGAGACCAACCGAGAA | – | – | > 5000 nM | – |
| AMX84-A11 (ssRNA, 2'-F C and U, 2'-OH A and G) RNA: GGGAAAAGCGAAUCAUACACAAGAGAGGUAUGUGGUUUUGCGGAGCAACUCGUGUCAGCGGUCAGCUCCGCCAGAGACCAACCGAGAA | – | – | > 5000 nM | – |
| AMX91-G9 (ssRNA, 2'-F C,U) RNA: GGGAAAAGCGAAUCAUACACAAGAAUUGUGCUUACAACUUUCGUUGUACCGACGUGUCAGUUAUGCUCCGCCAGAGACCAACCGAGAA | no binding | 33 nM | – | 50 nM |
| AMX84-F11 (ssRNA, 2'-F C,U) RNA: GGGAAAAGCGAAUCAUACACAAGAUGUGCUUGAGUUAAAUCUCAUCGUCCCCGUUUGGGGAUAUGCUCCGCCAGAGACCAACCGAGAA | – | – | – | 250 nM |
| AMX91-A6 (ssRNA, 2'-F C,U) RNA: GGGAAAAGCGAAUCAUACACAAGAUUGGCAAUGUGACCUUCAACCCUUUUCCCGAUGAACAGUGGCUCCGCCAGAGACCAACCGAGAA | no binding | 60.3 nM | – | – |
| AMX91-A6 (ssRNA, 2'-F C and U, 2'-OH A and G) RNA: GGGAAAAGCGAAUCAUACACAAGAUUGGCAAUGUGACCUUCAACCCUUUUCCCGAUGAACAGUGGCUCCGCCAGAGACCAACCGAGAA | – | – | 3000 nM | – |
| AMX91-H3 (ssRNA, 2'-F C,U) RNA: GGGAAAAGCGAAUCAUACACAAGACAUUGUGCUUUAUCACGUGGGUGAUAACGACGAAAGUUAUGCUCCGCCAGAGACCAACCGAGAA | no binding | 266 nM | – | 50 nM |
| AMX91-C12 (ssRNA, 2'-F C,U) RNA: GGGAAAAGCGAAUCAUACACAAGACGAUAGUAUGACCUUUUGAAAGGCUUCCCGAGCGGUGUUCGCUCCGCCAGAGACCAACCGAGAA | no binding | 30.7 nM | – | 50 nM |
| AMX91-H12 (ssRNA, 2'-F C,U) RNA: GGGAAAAGCGAAUCAUACACAAGACGUGUGCUUUAUGUAAACCAUAACGUUCCAUAAGGAAUAUGCUCCGCCAGAGACCAACCGAGAA | no binding | 60.8 nM | – | – |
| AMX91-E3 (ssRNA, 2'-F C and U, 2'-OH A and G) RNA: GGGAAAAGCGAAUCAUACACAAGAUUACUCCGUUAGUGUCAGUUGACGGAGGGAGCGUACUAUUGCUCCGCCAGAGACCAACCGAGAA | – | – | > 5000 nM | – |
| AMX91-F11 (ssRNA, 2'-F C and U, 2'-OH A and G) RNA: GGGAAAAGCGAAUCAUACACAAGACGCGUCAGGUCCACGCUGAAAUUUAUUUUCGGCAGUGUAAGCUCCGCCAGAGACCAACCGAGAA | – | – | 5000 nM | – |
| AMX84-G11 (ssRNA, 2'-F C,U) RNA: GGGAAAAGCGAAUCAUACACAAGAGUGCUUCGUAUGUUGAAUACGACGUUCGCAGGACGAAUAUGCUCCGCCAGAGACCAACCGAGAA | no binding | 291 nM | – | 250 nM |
| AMX84-C10 (ssRNA, 2'-F C,U) RNA: GGGAAAAGCGAAUCAUACACAAGAGAUGUAUUCAGGCGGUCCGCAUUGAUGUCAGUUAUGCGUAGCUCCGCCAGAGACCAACCGAGAA | no binding | 94.3 nM | – | 250 nM |
| GGAGUACGCCGAAAGGCGCUUCCGAAAGGACGUCCGUAAGGGAUACUCC (ssRNA, 2'-F C,U) [Type 1.5] | – | – | – | 80 nM |
| AMX91-H7 (ssRNA, 2'-F C,U) RNA: GGGAAAAGCGAAUCAUACACAAGACUUAUCGCCUCAAGGGGGGUAAUAAACCCAGCGUGUGCAUGCUCCGCCAGAGACCAACCGAGAA | no binding | 71 nM | – | 50 nM |
| AMX86-C5 (ssRNA, 2'-F C and U, 2'-OH A and G) RNA: GGGAAAAGCGAAUCAUACACAAGAGUUUUAUGUGGGUCCCGAUGAUUAACUUUAUUGGCGCAUUGCUCCGCCAGAGACCAACCGAGAA | – | – | 3000 nM | – |
